Experimental data taken from US20100041597A1, “PEPTIDES TARGETED TO PROTEIN KINASE C ISOFORMS AND USES THEREOF” (priority 2005, published 2010).

Assays:
[1] = target: PKC-βI (purified isoform) (Homo sapiens (Human)) (UniProt P05771); assay: competitive ELISA on purified PKC-βI vs anti-PKC-βI Ab; PRE 100 µM
[2] = target: PKC-δ (purified isoform) (Homo sapiens (Human)) (UniProt Q05655); assay: competitive ELISA on purified PKC-δ vs anti-PKC-δ Ab; PRE 50 µM
[3] = target: PKC-δ (purified isoform) (Homo sapiens (Human)) (UniProt Q05655); assay: competitive ELISA on purified PKC-δ vs anti-PKC-δ Ab; PRE 100 µM
[4] = target: PKC-δ (purified isoform) (Homo sapiens (Human)) (UniProt Q05655); assay: competitive ELISA on purified PKC-δ vs anti-PKC-δ Ab; PRE 200 µM
[5] = target: PKC-βI (purified isoform) (Homo sapiens (Human)) (UniProt P05771); assay: competitive ELISA on purified PKC-βI vs anti-PKC-βI Ab; PRE 50 µM
[6] = target: PKC-βI (purified isoform) (Homo sapiens (Human)) (UniProt P05771); assay: competitive ELISA on purified PKC-βI vs anti-PKC-βI Ab; PRE 200 µM
[7] = target: PKC-βII (purified isoform) (Homo sapiens (Human)) (UniProt P05771); assay: competitive ELISA on purified PKC-βII vs anti-PKC-βII Ab; PRE 100 µM
[8] = target: PKC-βII (purified isoform) (Homo sapiens (Human)) (UniProt P05771); assay: competitive ELISA on purified PKC-βII vs anti-PKC-βII Ab; PRE 50 µM
[9] = target: PKC-βII (purified isoform) (Homo sapiens (Human)) (UniProt P05771); assay: competitive ELISA on purified PKC-βII vs anti-PKC-βII Ab; PRE 200 µM
[10] = target: PKC-ε (purified isoform) (Homo sapiens (Human)) (UniProt Q02156); assay: competitive ELISA on purified PKC-ε vs anti-PKC-ε Ab; PRE 100 µM
[11] = target: PKC-ε (purified isoform) (Homo sapiens (Human)) (UniProt Q02156); assay: competitive ELISA on purified PKC-ε vs anti-PKC-ε Ab; PRE 200 µM
[12] = target: PKC-ε (purified isoform) (Homo sapiens (Human)) (UniProt Q02156); assay: competitive ELISA on purified PKC-ε vs anti-PKC-ε Ab; PRE 50 µM
[13] = target: PKC-βI (purified isoform) (Homo sapiens (Human)), P05771; assay: competitive ELISA on purified PKC-βI vs anti-PKC-βI Ab; PRE 200 µM; conditions: remark: other sources report otherwise
[14] = target: PKC-βI (purified isoform) (Homo sapiens (Human)), P05771; assay: competitive ELISA on purified PKC-βI vs anti-PKC-βI Ab; PRE 100 µM; conditions: remark: other sources report otherwise
[15] = target: PKC-βI (purified isoform) (Homo sapiens (Human)), P05771; assay: competitive ELISA on purified PKC-βI vs anti-PKC-βI Ab; PRE 50 µM; conditions: remark: other sources report otherwise

Sequence of PKC-δ (purified isoform) (Homo sapiens (Human)) (Q05655 whole entry, stated change not applied, canonical isoform): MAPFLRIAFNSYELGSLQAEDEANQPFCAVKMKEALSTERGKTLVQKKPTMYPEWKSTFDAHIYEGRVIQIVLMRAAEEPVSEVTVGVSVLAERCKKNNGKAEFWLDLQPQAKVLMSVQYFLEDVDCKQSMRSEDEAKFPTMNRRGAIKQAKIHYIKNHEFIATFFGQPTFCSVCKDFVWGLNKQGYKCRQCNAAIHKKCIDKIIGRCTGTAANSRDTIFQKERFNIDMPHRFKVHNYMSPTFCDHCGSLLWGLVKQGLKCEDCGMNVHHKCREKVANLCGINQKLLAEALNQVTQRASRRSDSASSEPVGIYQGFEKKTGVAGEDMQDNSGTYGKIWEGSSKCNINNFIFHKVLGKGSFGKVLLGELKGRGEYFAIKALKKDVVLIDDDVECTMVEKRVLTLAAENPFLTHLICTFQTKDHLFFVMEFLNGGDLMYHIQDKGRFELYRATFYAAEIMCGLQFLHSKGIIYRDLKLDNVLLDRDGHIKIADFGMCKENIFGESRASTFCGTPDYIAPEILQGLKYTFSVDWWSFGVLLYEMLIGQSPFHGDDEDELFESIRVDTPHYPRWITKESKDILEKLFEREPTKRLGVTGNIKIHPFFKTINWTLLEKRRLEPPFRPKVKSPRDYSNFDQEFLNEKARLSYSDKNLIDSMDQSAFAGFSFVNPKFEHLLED
Sequence of PKC-βII (purified isoform) (Homo sapiens (Human)) (P05771 other isoform, or with tags, fused parts or gaps limits assumed): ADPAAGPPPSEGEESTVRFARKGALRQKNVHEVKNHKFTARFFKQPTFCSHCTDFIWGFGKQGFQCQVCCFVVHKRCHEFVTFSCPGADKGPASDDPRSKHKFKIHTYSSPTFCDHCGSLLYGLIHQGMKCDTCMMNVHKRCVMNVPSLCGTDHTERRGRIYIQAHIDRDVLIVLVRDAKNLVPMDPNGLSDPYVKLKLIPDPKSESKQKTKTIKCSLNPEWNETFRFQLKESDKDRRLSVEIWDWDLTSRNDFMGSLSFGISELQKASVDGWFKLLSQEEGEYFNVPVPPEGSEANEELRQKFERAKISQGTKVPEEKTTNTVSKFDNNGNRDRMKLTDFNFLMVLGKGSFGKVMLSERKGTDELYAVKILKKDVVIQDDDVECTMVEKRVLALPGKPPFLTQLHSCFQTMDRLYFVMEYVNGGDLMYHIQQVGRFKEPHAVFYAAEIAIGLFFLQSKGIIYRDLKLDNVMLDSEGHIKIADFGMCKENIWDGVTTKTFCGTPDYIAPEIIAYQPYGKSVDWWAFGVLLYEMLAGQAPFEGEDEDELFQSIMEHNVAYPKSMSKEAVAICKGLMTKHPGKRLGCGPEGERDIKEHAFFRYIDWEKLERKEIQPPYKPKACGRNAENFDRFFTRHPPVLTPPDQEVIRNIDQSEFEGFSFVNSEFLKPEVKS
Sequence of PKC-ε (purified isoform) (Homo sapiens (Human)) (Q02156 whole entry, canonical isoform): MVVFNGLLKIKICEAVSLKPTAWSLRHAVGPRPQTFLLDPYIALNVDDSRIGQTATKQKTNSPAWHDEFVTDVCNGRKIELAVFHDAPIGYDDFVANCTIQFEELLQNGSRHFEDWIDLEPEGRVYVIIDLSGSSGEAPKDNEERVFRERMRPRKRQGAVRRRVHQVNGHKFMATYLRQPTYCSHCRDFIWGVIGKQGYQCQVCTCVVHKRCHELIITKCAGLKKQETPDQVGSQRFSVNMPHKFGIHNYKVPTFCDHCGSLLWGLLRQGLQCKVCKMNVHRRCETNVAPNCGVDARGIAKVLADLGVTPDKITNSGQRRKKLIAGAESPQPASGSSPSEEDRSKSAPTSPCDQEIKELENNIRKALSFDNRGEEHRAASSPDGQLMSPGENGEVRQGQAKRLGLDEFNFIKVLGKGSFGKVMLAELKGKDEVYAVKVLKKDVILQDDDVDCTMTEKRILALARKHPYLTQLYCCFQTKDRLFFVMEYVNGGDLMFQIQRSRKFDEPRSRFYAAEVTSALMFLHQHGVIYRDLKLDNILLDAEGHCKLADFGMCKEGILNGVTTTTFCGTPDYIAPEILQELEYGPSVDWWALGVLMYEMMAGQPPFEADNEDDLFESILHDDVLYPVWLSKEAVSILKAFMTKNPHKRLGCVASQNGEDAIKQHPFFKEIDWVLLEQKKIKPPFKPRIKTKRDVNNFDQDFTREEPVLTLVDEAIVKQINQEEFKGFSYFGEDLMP
Sequence of PKC-βI (purified isoform) (Homo sapiens (Human)) (P05771 2-671 limits assumed): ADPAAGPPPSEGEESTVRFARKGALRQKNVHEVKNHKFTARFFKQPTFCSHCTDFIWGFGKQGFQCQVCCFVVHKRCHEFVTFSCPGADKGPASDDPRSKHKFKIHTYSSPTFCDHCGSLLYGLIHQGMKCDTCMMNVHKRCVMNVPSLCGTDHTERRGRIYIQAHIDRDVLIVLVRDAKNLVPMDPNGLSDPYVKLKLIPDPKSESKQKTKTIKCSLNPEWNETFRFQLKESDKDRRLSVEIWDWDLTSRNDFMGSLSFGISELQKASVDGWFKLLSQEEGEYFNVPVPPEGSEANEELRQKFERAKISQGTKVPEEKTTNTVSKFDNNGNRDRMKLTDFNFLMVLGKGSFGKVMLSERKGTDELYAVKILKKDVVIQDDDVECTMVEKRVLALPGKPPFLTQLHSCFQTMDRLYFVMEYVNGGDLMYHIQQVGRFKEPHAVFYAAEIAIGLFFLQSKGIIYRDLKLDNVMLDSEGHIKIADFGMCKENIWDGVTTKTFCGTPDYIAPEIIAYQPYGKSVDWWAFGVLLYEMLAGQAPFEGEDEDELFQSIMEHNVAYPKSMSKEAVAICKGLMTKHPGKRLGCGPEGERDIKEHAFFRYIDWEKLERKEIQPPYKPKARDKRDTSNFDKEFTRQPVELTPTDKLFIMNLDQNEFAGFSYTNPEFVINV
Sequence of PKC-βI (purified isoform) (Homo sapiens (Human)), P05771 (P05771 2-671 limits assumed): as above

B1: PRE 10 (peptide)
peptide: Ac-ISIGILNQADK-NH2
binding capacity (%) [1]: 4.35% | binding capacity (%) [2]: 0% | binding capacity (%) [3]: 0% | binding capacity (%) [4]: 9.47% | binding capacity (%) [5]: 3.77% | binding capacity (%) [6]: 0%

B2: PRE 5 (peptide)
peptide: Ac-AKGIQEVKGGKDAQNLIGISI-NH2
binding capacity (%) [1]: 0% | binding capacity (%) [5]: 0% | binding capacity (%) [6]: 0%

B3: PRE 11 (peptide)
peptide: Ac-RDAQNLIGISI-NH2
binding capacity (%) [1]: 14.2% | binding capacity (%) [7]: 11% | binding capacity (%) [8]: 7.14% | binding capacity (%) [9]: 6.4% | binding capacity (%) [5]: 9.86% | binding capacity (%) [6]: 12.5%

B4: PRE 1 (peptide)
peptide: RRKKGGKDFVVKR
binding capacity (%) [10]: 5.47% | binding capacity (%) [11]: 0.83% | binding capacity (%) [12]: 19.8%

B5: PRE 7 (peptide)
peptide: Ac-ISIGILQNADK-NH2
binding capacity (%) [7]: 11.1% | binding capacity (%) [8]: 5.42% | binding capacity (%) [9]: 2.59%

B6: PRE 8 (peptide)
peptide: ILEDKGGDAQNLIGISI
binding capacity (%) [13]: 0% | binding capacity (%) [14]: 0% | binding capacity (%) [15]: 0%
